Test results: US10927178B2, “Anti-CXCR4 antibodies and antibody-drug conjugates” (PFIZER INC., priority 2013, dated 2021)
Where a chain is given by its changes, count along the chain named. Numbers in names are those of the source.

B1: h3G10.1.91.A58B: humanized anti-CXCR4 antibody; VH h3G10.1.91 SEQ ID NO:33, VL h3G10.A58B SEQ ID NO:73 (antibody, V domains shown)
VH: EVQLVESGGGLVQPGGSLRLSCAASGFTFSDYYMSWVRQAPGKGLEWVGFIRHKANFETTEYSTSVKGRFTISRDDSKNSLYLQMNSLKTEDTAVYYCARDLPGFAYWGQGTLVTVSS
VL: DIVMTQSPDSLAVSLGERATINCKSSQSLFNSHTRKNYLAWYQQKPGQPPKLLIYWASARGSGVPDRFSGSGSGTDFTLTISSLQAEDVAVYYCKQSFNLRTFGGGTKVEIK
B2: h3G10.B44 VH/h3G10.B12 VL: Fab; VH SEQ ID NO:25, VL B12 (probably B12A, SEQ ID NO:61) (antibody, V domains shown)
VH: B1 VH with G49S, E58Y, D76N, S80T, K89R, T90A, R100K
VL: B1 VL with H33R, A40L, G61E, N99R
B3: h3G10.B44 VH/h3G10.A11 VL: Fab; VH SEQ ID NO:25, VL A11 (probably A11A, SEQ ID NO:51) (antibody, V domains shown)
VH: B1 VH with G49S, E58Y, D76N, S80T, K89R, T90A, R100K
VL: B1 VL with S26A, H33R, G61E, N99R
modifications: Fab
B4: h3G10.B44 VH/h3G10.2.72 VL: Fab; VH SEQ ID NO:25, VL SEQ ID NO:49 (antibody, V domains shown)
VH: B1 VH with G49S, E58Y, D76N, S80T, K89R, T90A, R100K
VL: B1 VL with H33R, G61E, N99R
modifications: Fab
B5: h3G10.A57 VH/h3G10.A11 VL: Fab; VH SEQ ID NO:23, VL A11 (probably A11A, SEQ ID NO:51) (antibody, V domains shown)
VH: B1 VH with E58Y
VL: B1 VL with S26A, H33R, G61E, N99R
modifications: Fab
B6: h3G10.A57 VH/h3G10.B12 VL: Fab; VH SEQ ID NO:23, VL B12 (probably B12A, SEQ ID NO:61) (antibody, V domains shown)
VH: B1 VH with E58Y
VL: B1 VL with H33R, A40L, G61E, N99R
modifications: Fab
B7: h3G10 VH/h3G10 VL: Fab; VH SEQ ID NO:21, VL SEQ ID NO:47 (antibody, V domains shown)
VH: B1 VH with F57G, E58Y
VL: B1 VL with H33R, G61E
modifications: Fab
B8: h3G10.2.37 VH/h3G10.A58B VL: Fab; VH SEQ ID NO:35, VL SEQ ID NO:73 (antibody, V domains shown)
VH: B1 VH with E58Y, T60R
VL: B1 VL
modifications: Fab
B9: h3G10.A57 VH/h3G10.2.72 VL: Fab; VH SEQ ID NO:23, VL SEQ ID NO:49 (antibody, V domains shown)
VH: B1 VH with E58Y
VL: B1 VL with H33R, G61E, N99R
modifications: Fab
B10: h3G10.A57 VH/h3G10.A58B VL: Fab; VH SEQ ID NO:23, VL SEQ ID NO:73 (antibody, V domains shown)
VH: B1 VH with E58Y
VL: B1 VL
modifications: Fab
B11: h3G10.A57 VH/h3G10 VL: Fab; VH SEQ ID NO:23, VL SEQ ID NO:47 (antibody, V domains shown)
VH: B1 VH with E58Y
VL: B1 VL with H33R, G61E
modifications: Fab
B12: h3G10.1.91 VH/h3G10.2.72 VL: Fab; VH SEQ ID NO:33, VL SEQ ID NO:49 (antibody, V domains shown)
VH: B1 VH
VL: B1 VL with H33R, G61E, N99R
modifications: Fab
B13: h3G10.1.91 VH/h3G10.A58B VL: Fab; VH SEQ ID NO:33, VL SEQ ID NO:73 (antibody, V domains shown)
VH: B1 VH
VL: B1 VL
modifications: Fab
B14: h3G10.1.91 VH/h3G10.A58A VL: Fab; VH SEQ ID NO:33, VL SEQ ID NO:57 (antibody, V domains shown)
VH: B1 VH
VL: B1 VL with N99R
modifications: Fab
B15: h3G10.2.37 VH/h3G10.A58A VL: Fab; VH SEQ ID NO:35, VL SEQ ID NO:57 (antibody, V domains shown)
VH: B1 VH with E58Y, T60R
VL: B1 VL with N99R
modifications: Fab
B16: h3G10.A57 VH/h3G10.A58A VL: Fab; VH SEQ ID NO:23, VL SEQ ID NO:57 (antibody, V domains shown)
VH: B1 VH with E58Y
VL: B1 VL with N99R
modifications: Fab
B17: h3G10.2.37 VH/h3G10.2.72 VL: Fab; VH SEQ ID NO:35, VL SEQ ID NO:49 (antibody, V domains shown)
VH: B1 VH with E58Y, T60R
VL: B1 VL with H33R, G61E, N99R
modifications: Fab

How the values were obtained:
OPM-2-Luc MM cells = assay: Systemic OPM-2-Luc multiple myeloma model; assay type: in vivo, mouse
Description: Humanized anti-CXCR4 antibody h3G10.1.91.A58B was tested for its ability to increase survival and reduce tumor burden of NSG mice using a disseminated/systemic intravenous model of MM. The human MM cancer line OPM-2 was transduced with the luciferase gene (OPM-2-LUC) to allow for “in life” monitoring of tumor burden over time. Cells were cultured at 37° C. in a 5% CO2 incubator in RPMI 1640 media containing 10% fetal bovine serum with 0.5 μg/mL puromycin for luciferase expression selection. 4-6 week old NSG female mice were injected intravenously with OPM-2-Luc cells (5×10^6/animal).
On Day 8 post-cell implantation mice were randomized into three treatment groups (10 animals per group) based on total body bioluminescence intensity. Weekly subcutaneous (s.c.) antibody treatment at 10 mg/kg in a solution of sterile PBS was initiated and carried out for 5 weeks. Melphalan, one of the approved drugs for treatment of multiple myeloma patients, was dosed at 1 mg/kg, twice/week carried out for 3 weeks. Tumor burden was assessed using Xenogen IVIS 200 imaging system. Mice were imaged every 7 days in a ventral position and whole body bioluminescence was determined using Xenogen Living Image software. When mice began to show hind limb paralysis or reached other humane endpoints they were euthanized. Both tumor burden (by bioluminescence) and survival were evaluated as endpoints.

[1] = target: T1, CXCR4 (CXCR4-expressing HPB-ALL cells) (Homo sapiens, UniProt P61073); assay: Flow cytometry binding of humanized 3G10 Fabs to HPB-ALL cells (Example 2); settings: for MFI 0.25 μg/ml: Fab 0.25 μg/ml; for MFI 2.5 μg/ml: Fab 2.5 μg/ml
T1 construct: endogenous in cells; host or cells: HPB-ALL (human T cell leukemia)
T1 sequence (P61073 whole entry): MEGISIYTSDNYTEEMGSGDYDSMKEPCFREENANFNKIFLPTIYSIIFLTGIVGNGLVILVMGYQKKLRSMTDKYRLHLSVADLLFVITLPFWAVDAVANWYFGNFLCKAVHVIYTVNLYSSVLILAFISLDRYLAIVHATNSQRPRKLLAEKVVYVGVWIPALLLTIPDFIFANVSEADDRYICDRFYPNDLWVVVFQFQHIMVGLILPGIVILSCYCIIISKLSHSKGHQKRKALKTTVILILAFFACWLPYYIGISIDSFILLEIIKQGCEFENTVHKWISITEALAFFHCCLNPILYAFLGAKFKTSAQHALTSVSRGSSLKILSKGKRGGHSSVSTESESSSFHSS
Description: 150,000 cells were incubated with various h3G10 Fabs at either 2.5 or 0.25 μg/mL in 100 uL binding buffer (PBS+0.5% BSA), followed by incubation with APC-conjugated goat anti-human Fab-specific secondary antibody from R&D systems.

[2] = target: T2, human CXCR4-enriched lipoparticles (Homo sapiens, UniProt P61073); assay: Biosensor affinity measurement of Fabs on CXCR4-enriched lipoparticles; assay type: binding; settings: Fab; kinetic titration
T2 construct: purchased Integral Molecular, Philadelphia Pa; LEV101
T2 sequence (P61073 whole entry): as above
Description: One way of determining binding affinity of antibodies to CXCR4 is by measuring binding affinity of monofunctional Fab fragments of the antibody. To obtain monofunctional Fab fragments, an antibody (for example, IgG) can be cleaved with papain or expressed recombinantly. […] Biotinylated WGA can be coated on the SA chip to facilitate capturing Lipoparticles containing CXCR4 proteins. […] J. Mol. Recognit. 12, 279-284 (1999).
The concentrations of the Fab proteins are determined by ELISA and/or SDS-PAGE electrophoresis using a Fab of known concentration (as determined by amino acid analysis) as a standard. Kinetic association rates (kon) and dissociation rates (koff) are obtained simultaneously by fitting the data globally to a 1:1 Langmuir binding model (Karlsson, R. Roos, H. Fagerstam, L. Petersson, B. (1994). Methods Enzymology 6. 99-110) using the BIAevaluation program. Equilibrium dissociation constant (KD) values are calculated as koff/kon.
The binding affinity of each Fab was determined using human CXCR4-enriched lipoparticles (LEV101, Integral Molecular, Philadelphia Pa.). Biotinylated WGA (Sigma Aldrich, St. Louis Mo.)) can be coated on the SA chip to facilitate capturing lipoparticles containing CXCR4 proteins. […] J. Mol. Recognit. 12, 279-284 (1999).

[3] = NSG mice, OPM-2-Luc i.v., antibody 10 mg/kg s.c. weekly for 5 weeks, Melphalan 1 mg/kg twice/week for 3 weeks
[4] = antibody 10 mg/kg s.c. weekly 5 weeks, Melphalan 1 mg/kg twice/week 3 weeks, isotype control 33.5 days

| Molecule | Ka (1/MS) [2] | Kd [2] [s⁻¹] | also measured |
| --- | --- | --- | --- |
| N[C@@H](Cc1ccc(N(CCCl)CCCl)cc1)C(=O)O [Melphalan, reference compound] |  |  | median survival (OPM-2-Luc MM cells; [3]): 36 days; median survival (OPM-2-Luc MM cells; [4]): 36 days |
| B1 |  |  | tumor growth (bioluminescence) compared to isotype control antibody (OPM-2-Luc MM cells; 10 mg/kg s.c. weekly for 5 weeks, p<0.0001 on Day 30): significantly inhibited tumor growth; median survival (OPM-2-Luc MM cells; [3]): Undefined; median survival (OPM-2-Luc MM cells; [4]): undefined |
| B2 |  |  | MFI 0.25 μg/ml [1]: 2094; MFI 2.5 μg/ml [1]: 8127 |
| B3 |  |  | MFI 0.25 μg/ml [1]: 3792; MFI 2.5 μg/ml [1]: 8306 |
| B4 |  |  | MFI 0.25 μg/ml [1]: 4513; MFI 2.5 μg/ml [1]: 8908 |
| B5 |  |  | MFI 0.25 μg/ml [1]: 1251; MFI 2.5 μg/ml [1]: 4521 |
| B6 |  |  | MFI 0.25 μg/ml [1]: 2921; MFI 2.5 μg/ml [1]: 6830 |
| B7 | 1.60E+06 1/MS | 0.003 |  |
| B8 | 7.97E+05 1/MS | 0.000449 |  |
| B9 | 1.10E+06 1/MS | 0.0013 |  |
| B10 | 6.88E+05 1/MS | 0.000515 |  |
| B11 | 1.17E+06 1/MS | 0.00143 |  |
| B12 | 1.50E+06 1/MS | 0.00049 |  |
| B13 | 8.03E+05 1/MS | 0.000286 |  |
| B14 | 9.08E+05 1/MS | 0.000341 |  |
| B15 | 1.29E+06 1/MS | 0.000418 |  |
| B16 | 1.60E+06 1/MS | 0.00063 |  |
| B17 | 2.30E+06 1/MS | 0.0008 |  |
